Reference: doi:10.1101/2020.10.13.337493 (bioRxiv, 2020)

B1: VAP-A (natural protein, human, UniProt Q9P0L0 8-249, looked up)
chain: MAKHEQILVLDPPTDLKFKGPFTDVVTTNLKLRNPSDRKVCFKVKTTAPRRYCVRPNSGIIDPGSTVTVSVMLQPFDYDPNEKSKHKFMVQTIFAPPNTSDMEAVWKEAKPDELMDSKLRCVFEMPNENDKLNDMEPSKAVPLNASKQDGPMPKPHSVSLNDTETRKLMEECKRLQGEMMKLSEENRHLRDEGLRLRKVAHSDKPGSTSTASFRDNVTSPLPSLLVVIAAIFIGFFLGKFIL
B2: N-PH-FFAT construct of OSBP (domain or fragment, human, UniProt P22059 1-408, looked up)
chain: MAATELRGVVGPGPAAIAALGGGGAGPPVVGGGGGRGDAGPGSGAASGTVVAAAAGGPGPGAGGVAAAGPAPAPPTGGSGGSGAGGSGSAREGWLFKWTNYIKGYQRRWFVLSNGLLSYYRSKAEMRHTCRGTINLATANITVEDSCNFIISNGGAQTYHLKASSEVERQRWVTALELAKAKAVKMLAESDESGDEESVSQTDKTELQNTLRTLSSKVEDLSTCNDLIAKHGTALQRSLSELESLKLPAESNEKIKQVNERATLFRITSNAMINACRDFLMLAQTHSKKWQKSLQYERDQRIRLEETLEQLAKQHNHLERAFRGATVLPANTPGNVGSGKDQCCSGKGDMSDEDDENEFFDAPEIITMPENLGHKRTGSNISGASSDISLDEQYKHQLEETKKEKRTR

Tests used:
[1] = target: OSBP Central Core (CC), wild type (human) (UniProt P22059); assay: SEC
[2] = target: OSBP CC[V199C] construct (V199C/C224A/C276A), labelled with AF-488 or AF-568 (human) (UniProt P22059); assay: FRET or BRET
[3] = target: B2; assay: membrane tethering in reconstituted contact sites, seen by cryo-EM and cryo-ET
cryo-EM structure = target: the molecule itself; assay: cryo-EM structure

“OSBP Central Core (CC), wild type (from UniProt P22059 199-324) (domain or fragment)” gave a stoichiometry N [1] of 2.

“OSBP CC[V199C] construct (V199C/C224A/C276A), labelled with AF-488 or AF-568 (from UniProt P22059 199-324) (domain or fragment)” was tested, and the half-time of monomer exchange [2] was 100 min.

With B1 the binding result [3] was “binds” and the “stoichiometry N” value (cryo-EM structure) was 2.

In the case of B2, the “stoichiometry N” value (cryo-EM structure) is reported as 2.
